{"source": "the supplement of paper PMC10567573", "parents": {"B1": {"name": "HDAC6 (parent)", "chain": "DLMETTQYMNEGELRVLADTYDSV"}}, "data": [{"variants_of": "B1", "assay": "protein stability index of a GFP-peptide fusion (GPS, HEK-293T) (PSI 1-6); higher = more stable", "details": "c terminus: a fixed tail appended", "values": [{"variant": "DLMETTQYMNEGRLRVLADTYDSV", "note": "[E13R]", "protein stability index": 3.63}, {"variant": "DLMETTQYMNEGMLRVLADTYDSV", "note": "[E13M]", "protein stability index": 2.65}, {"variant": "DLMETTQYMNEGCLRVLADTYDSV", "note": "[E13C]", "protein stability index": 3.37}, {"variant": "DLMETTQYMNEGDLRVLADTYDSV", "note": "[E13D]", "protein stability index": 3.9}, {"variant": "DLMETTQYMNEGHLRVLADTYDSV", "note": "[E13H]", "protein stability index": 3.2}, {"variant": "DLMETTQYMNEGWLRVLADTYDSV", "note": "[E13W]", "protein stability index": 2.32}, {"variant": "DLMETTQYMNEGLLRVLADTYDSV", "note": "[E13L]", "protein stability index": 2.63}, {"variant": "DLMETTQYMNEGTLRVLADTYDSV", "note": "[E13T]", "protein stability index": 3.84}, {"variant": "DLMETTQYMNEGILRVLADTYDSV", "note": "[E13I]", "protein stability index": 2.47}, {"variant": "DLMETTQYMNEGFLRVLADTYDSV", "note": "[E13F]", "protein stability index": 2.66}, {"variant": "DLMETTQYMNEGGLRVLADTYDSV", "note": "[E13G]", "protein stability index": 4.06}, {"variant": "DLMETTQYMNEGKLRVLADTYDSV", "note": "[E13K]", "protein stability index": 3.69}, {"variant": "DLMETTQYMNEGQLRVLADTYDSV", "note": "[E13Q]", "protein stability index": 4.13}, {"variant": "DLMETTQYMNEGALRVLADTYDSV", "note": "[E13A]", "protein stability index": 3.38}, {"variant": "DLMETTQYMNEGNLRVLADTYDSV", "note": "[E13N]", "protein stability index": 3.96}, {"variant": "DLMETTQYMNEGYLRVLADTYDSV", "note": "[E13Y]", "protein stability index": 2.83}, {"variant": "DLMETTQYMNEGVLRVLADTYDSV", "note": "[E13V]", "protein stability index": 3.53}, {"variant": "DLMETTQYMNEGSLRVLADTYDSV", "note": "[E13S]", "protein stability index": 3.56}, {"variant": "DLMETTQYMNEGELRKLADTYDSV", "note": "[V16K]", "protein stability index": 3.91}, {"variant": "DLMETTQYMNEGELRRLADTYDSV", "note": "[V16R]", "protein stability index": 4.01}, {"variant": "DLMETTQYMNEGELRCLADTYDSV", "note": "[V16C]", "protein stability index": 2.72}, {"variant": "DLMETTQYMNEGELRSLADTYDSV", "note": "[V16S]", "protein stability index": 4.42}, {"variant": "DLMETTQYMNEGELRALADTYDSV", "note": "[V16A]", "protein stability index": 3.72}, {"variant": "DLMETTQYMNEGELRWLADTYDSV", "note": "[V16W]", "protein stability index": 3.54}, {"variant": "DLMETTQYMNEGELRQLADTYDSV", "note": "[V16Q]", "protein stability index": 4.23}, {"variant": "DLMETTQYMNEGELRLLADTYDSV", "note": "[V16L]", "protein stability index": 3.27}, {"variant": "DLMETTQYMNEGELRILADTYDSV", "note": "[V16I]", "protein stability index": 2.1}, {"variant": "DLMETTQYMNEGELRGLADTYDSV", "note": "[V16G]", "protein stability index": 4.03}, {"variant": "DLMETTQYMNEGELRYLADTYDSV", "note": "[V16Y]", "protein stability index": 3.9}, {"variant": "DLMETTQYMNEGELRTLADTYDSV", "note": "[V16T]", "protein stability index": 4.2}, {"variant": "DLMETTQYMNEGELRPLADTYDSV", "note": "[V16P]", "protein stability index": 4.81}, {"variant": "DLMETTQYMNEGELRDLADTYDSV", "note": "[V16D]", "protein stability index": 4.54}, {"variant": "DLMETTQYMNEGELRNLADTYDSV", "note": "[V16N]", "protein stability index": 4.06}, {"variant": "DLMETTQYMNEGELRFLADTYDSV", "note": "[V16F]", "protein stability index": 3.61}, {"variant": "DLMETTQYMNEGELRHLADTYDSV", "note": "[V16H]", "protein stability index": 4.62}, {"variant": "DLMETTQYMNEGELRELADTYDSV", "note": "[V16E]", "protein stability index": 4.75}, {"variant": "DLMETTQYMNEGELRMLADTYDSV", "note": "[V16M]", "protein stability index": 3.99}, {"variant": "DLMETTQYMNEGELRVLADTWDSV", "note": "[Y21W]", "protein stability index": 2}, {"variant": "DLMETTQYMNEGELRVLADTHDSV", "note": "[Y21H]", "protein stability index": 1.72}, {"variant": "DLMETTQYMNEGELRVLADTDDSV", "note": "[Y21D]", "protein stability index": 3.31}, {"variant": "DLMETTQYMNEGELRVLADTFDSV", "note": "[Y21F]", "protein stability index": 2.24}, {"variant": "DLMETTQYMNEGELRVLADTQDSV", "note": "[Y21Q]", "protein stability index": 3.21}, {"variant": "DLMETTQYMNEGELRVLADTGDSV", "note": "[Y21G]", "protein stability index": 2.66}, {"variant": "DLMETTQYMNEGELRVLADTNDSV", "note": "[Y21N]", "protein stability index": 1.61}, {"variant": "DLMETTQYMNEGELRVLADTIDSV", "note": "[Y21I]", "protein stability index": 1.79}, {"variant": "DLMETTQYMNEGELRVLADTPDSV", "note": "[Y21P]", "protein stability index": 2.04}, {"variant": "DLMETTQYMNEGELRVLADTCDSV", "note": "[Y21C]", "protein stability index": 2.2}, {"variant": "DLMETTQYMNEGELRVLADTLDSV", "note": "[Y21L]", "protein stability index": 1.96}, {"variant": "DLMETTQYMNEGELRVLADTKDSV", "note": "[Y21K]", "protein stability index": 2.74}, {"variant": "DLMETTQYMNEGELRVLADTMDSV", "note": "[Y21M]", "protein stability index": 1.44}, {"variant": "DLMETTQYMNEGELRVLADTSDSV", "note": "[Y21S]", "protein stability index": 2.26}, {"variant": "DLMETTQYMNEGELRVLADTADSV", "note": "[Y21A]", "protein stability index": 2.69}, {"variant": "DLMETTQYMNEGELRVLADTTDSV", "note": "[Y21T]", "protein stability index": 3.1}, {"variant": "DLMETTQYMNEGELRVLADLYDSV", "note": "[T20L]", "protein stability index": 1.04}, {"variant": "DLMETTQYMNEGELRVLADIYDSV", "note": "[T20I]", "protein stability index": 2.91}, {"variant": "DLMETTQYMNEGELRVLADPYDSV", "note": "[T20P]", "protein stability index": 1.99}, {"variant": "DLMETTQYMNEGELRVLADQYDSV", "note": "[T20Q]", "protein stability index": 2.58}, {"variant": "DLMETTQYMNEGELRVLADNYDSV", "note": "[T20N]", "protein stability index": 2.21}, {"variant": "DLMETTQYMNEGELRVLADRYDSV", "note": "[T20R]", "protein stability index": 3.07}, {"variant": "DLMETTQYMNEGELRVLADMYDSV", "note": "[T20M]", "protein stability index": 1.62}, {"variant": "DLMETTQYMNEGELRVLADWYDSV", "note": "[T20W]", "protein stability index": 1.77}, {"variant": "DLMETTQYMNEGELRVLADFYDSV", "note": "[T20F]", "protein stability index": 2.27}, {"variant": "DLMETTQYMNEGELRVLADDYDSV", "note": "[T20D]", "protein stability index": 2.83}, {"variant": "DLMETTQYMNEGELRVLADEYDSV", "note": "[T20E]", "protein stability index": 2.41}, {"variant": "DLMETTQYMNEGELRVLADYYDSV", "note": "[T20Y]", "protein stability index": 2.06}, {"variant": "DLMETTQYMNEGELRVLADHYDSV", "note": "[T20H]", "protein stability index": 2.71}, {"variant": "DLMETTQYMNEGELRVLADAYDSV", "note": "[T20A]", "protein stability index": 2.49}, {"variant": "DLMETTQYMNEGELRVLADKYDSV", "note": "[T20K]", "protein stability index": 1.96}, {"variant": "DLMETTQYMNEGELRVLADSYDSV", "note": "[T20S]", "protein stability index": 2.13}, {"variant": "DLMETTQYMNEGELRVTADTYDSV", "note": "[L17T]", "protein stability index": 3.59}, {"variant": "DLMETTQYMNEGELRVWADTYDSV", "note": "[L17W]", "protein stability index": 2.33}, {"variant": "DLMETTQYMNEGELRVGADTYDSV", "note": "[L17G]", "protein stability index": 3.86}, {"variant": "DLMETTQYMNEGELRVKADTYDSV", "note": "[L17K]", "protein stability index": 2.75}, {"variant": "DLMETTQYMNEGELRVAADTYDSV", "note": "[L17A]", "protein stability index": 2.33}, {"variant": "DLMETTQYMNEGELRVFADTYDSV", "note": "[L17F]", "protein stability index": 2.05}, {"variant": "DLMETTQYMNEGELRVVADTYDSV", "note": "[L17V]", "protein stability index": 1.64}, {"variant": "DLMETTQYMNEGELRVDADTYDSV", "note": "[L17D]", "protein stability index": 5.03}, {"variant": "DLMETTQYMNEGELRVQADTYDSV", "note": "[L17Q]", "protein stability index": 3.11}, {"variant": "DLMETTQYMNEGELRVIADTYDSV", "note": "[L17I]", "protein stability index": 2.77}, {"variant": "DLMETTQYMNEGELRVNADTYDSV", "note": "[L17N]", "protein stability index": 4.55}, {"variant": "DLMETTQYMNEGELRVSADTYDSV", "note": "[L17S]", "protein stability index": 4.34}, {"variant": "DLMETTQYMNEGELRVPADTYDSV", "note": "[L17P]", "protein stability index": 4.47}, {"variant": "DLMETTQYMNEGELRVMADTYDSV", "note": "[L17M]", "protein stability index": 2.01}, {"variant": "DLMETTQYMNEGELRVHADTYDSV", "note": "[L17H]", "protein stability index": 2.12}, {"variant": "DLMETTQYMNEGELRVYADTYDSV", "note": "[L17Y]", "protein stability index": 1.99}, {"variant": "DLMETTQYMNEGELRVCADTYDSV", "note": "[L17C]", "protein stability index": 3.03}, {"variant": "DLMETTQYMNEGELRVRADTYDSV", "note": "[L17R]", "protein stability index": 2.97}, {"variant": "DLMETTQYMNEGELRVLADTYISV", "note": "[D22I]", "protein stability index": 2.16}, {"variant": "DLMETTQYMNEGELRVLADTYFSV", "note": "[D22F]", "protein stability index": 1}, {"variant": "DLMETTQYMNEGELRVLADTYESV", "note": "[D22E]", "protein stability index": 1.57}, {"variant": "DLMETTQYMNEGELRVLADTYASV", "note": "[D22A]", "protein stability index": 1.27}, {"variant": "DLMETTQYMNEGELRVLADTYGSV", "note": "[D22G]", "protein stability index": 1.76}, {"variant": "DLMETTQYMNEGELRVLADTYHSV", "note": "[D22H]", "protein stability index": 2}, {"variant": "DLMETTQYMNEGELRVLADTYCSV", "note": "[D22C]", "protein stability index": 2.18}]}]}
